Literature values, collected in PMC10276003.

Molecular target: GRB2 (Homo sapiens) (UniProt P62993)

GRB2, sequence (P62993 whole entry): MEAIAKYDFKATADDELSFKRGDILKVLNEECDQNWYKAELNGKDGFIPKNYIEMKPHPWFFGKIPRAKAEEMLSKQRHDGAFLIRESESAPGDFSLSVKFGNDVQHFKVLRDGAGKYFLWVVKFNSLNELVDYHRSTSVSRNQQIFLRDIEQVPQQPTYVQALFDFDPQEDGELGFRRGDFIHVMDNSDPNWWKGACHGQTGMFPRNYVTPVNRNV

Which Kd does the source give for GRB2 (from UniProt P62993) here?
The Kd was 0.7 µM.
